Experiments:
[1] = target: the molecule itself; experiment: crystal structure; H206A Orai_(cryst), space group I4_(1), 6.7 Å, 24 subunits (four channels) in the asymmetric unit, 24-fold NCS averaging; crystals grown in 36-38% PEG400, 500 mM NaCl, 100 mM Tris-HCl pH 9.0
[2] = target: the molecule itself; experiment: crystal structure; K163W Orai_(cryst), space group I4_(1), 6.1 Å, MIRAS, 24-fold NCS averaging; crystals grown in 26-28% PEG 400, 150 mM NaCl, 100 mM HEPES pH 7.5
[3] = target: the molecule itself; experiment: crystal structure; WT Orai_(cryst), space group I4_(1), 6.9 Å, MR-SAD, 24-fold NCS averaging; crystals grown in 32-35% PEG 400, 0.1 M potassium phosphate pH 7.5

B1: H206A Orai_(cryst) (natural protein, Drosophila melanogaster, UniProt Q9U6B8 133-341, looked up)
chain: MSQSGEDLHSPTYLSWRKLQLSRAKLKASSKTSALLSGFAMVAMVEVQLDHDTNVPPGMLIAFAICTTLLVAVAMLALMISTCILPNIETVSNLHSISLVHESPHERLHWYIETAWAFSTLLGLILFLLEIAILCWVKFYDLSPPAAWSATVVLIPVMIIFMAFAIHFYRSLVSHKYEVTVSGIRELEMLKEQMEQDHLEHHNNIRNNG
notes: Hexameric channel; The model holds residues 148-327 without 181-191 and 220-239; also called open conformation
Question: B1 was tested. Which “stoichiometry N” value [1] did it give?
Answer: The value was 6.

B2: K163W Orai_(cryst) (natural protein, Drosophila melanogaster, UniProt Q9U6B8 133-341, looked up)
chain: MSQSGEDLHSPTYLSWRKLQLSRAKLKASSWTSALLSGFAMVAMVEVQLDHDTNVPPGMLIAFAICTTLLVAVHMLALMISTCILPNIETVSNLHSISLVHESPHERLHWYIETAWAFSTLLGLILFLLEIAILCWVKFYDLSPPAAWSATVVLIPVMIIFMAFAIHFYRSLVSHKYEVTVSGIRELEMLKEQMEQDHLEHHNNIRNNG
notes: Hexameric channel, solved in two crystal forms (I4_(1) and P4_(2)2_(1)2); also called K163W mutant
Question: For B2, which “stoichiometry N” value [2] is on record?
Answer: The value was 6.

B3: WT Orai_(cryst) (natural protein, Drosophila melanogaster, UniProt Q9U6B8 133-341, looked up)
chain: MSQSGEDLHSPTYLSWRKLQLSRAKLKASSKTSALLSGFAMVAMVEVQLDHDTNVPPGMLIAFAICTTLLVAVHMLALMISTCILPNIETVSNLHSISLVHESPHERLHWYIETAWAFSTLLGLILFLLEIAILCWVKFYDLSPPAAWSATVVLIPVMIIFMAFAIHFYRSLVSHKYEVTVSGIRELEMLKEQMEQDHLEHHNNIRNNG
notes: Drosophila melanogaster Orai, amino acids 133-341, with C224S and C283T (made to improve stability); wild-type Pro276 and Pro277; 24 subunits in four channels in the asymmetric unit (24-fold NCS), which makes six a channel; The model holds residues 148-327 without 181-191 and 220-239; also called wild-type (WT) Orai_(cryst); unlatched-closed conformation
Question: Does B3 bind [3]?
Answer: Result: binds
